From the domain aggregation screens of Martell et al. (2025) come the findings set out here.

A short description of this data set: soluble fraction after stress (log2 fold change); higher = more stays soluble; pooled small domains, quantitative proteomics. As to conditions: stress: 75 degC.
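Note: 20 min heating vs room temperature control held 20 min.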

As to “HMVQARDQNIEEGRQLVLRELDRLDLVNESLTDVAADMNMKSVEDMYAAIGAGDLRVGQVVHAVLKRAD”, the “soluble fraction (log2)” value is 0.0164.
In the case of “HMVQDSEWWRNYQSAHDYFIQNGHLNVLRSDKKNTKLYNWIVGQRSSRWNSQGRINLLNSIGFIWDT”, the “soluble fraction (log2)” value was -3.01.
Turning to “HMVQISNTDDLYPIVQRIVDANPQSVEDYKNGKAKALGFLVGQMMKETKGKANPSMVNDLIIKAIEE”, the “soluble fraction (log2)” value is -0.022.
On to “HMVQIVINKEVQTTSQTILRENAGTSSRNIGYVDPNVKLRATLDRNSFYFIPEKKGWIMKSRVKLIEDLS”, for which the “soluble fraction (log2)” value is -3.77.
Under “HMVQMNMLELQEEMQRDRSWIIKHLFQDEYFRRKIAKFSQFPINDSGKYLFHRKSMLKFLNDYAEEIVER” stands -2.88.
Under “HMVQPSAAVRAHPVGAFVEQRQGLSDDQILALQKKWNEGIYARIQGTRWFLFSKDTPAVTSLLLVPDLP” stands -0.47.
Regarding “HMVQVHEWTNKAGRTIKAKFVRGDAQSVTIFLGGRNFVLKIADLSEESQALARKLSAPPPPP”, the “soluble fraction (log2)” value was -2.52.
Under “HMVQVPSLVGISEIEAKTLLTQAGFFVKIVEVFDANQPVGIVLAQAPSAGESRIIGSPVTITVNKAQ” stands -2.41; under “HMVQVRQPAGAGDLFAKGRLHLSTGTIHTVKPLEVDLPKGRLTVVTGVSGSGKTTLILESLLPALAAAAA”, 0.377.
In the case of “HMVRSLESESVYDRQRAYEIAYQLRTEERPYSFIATQLNKAGLRPQKAARYEWYSVQELLRSA”, the “soluble fraction (log2)” value is -1.38.
Take “HMVSDISTQYQKIINEALDKQPEVKLADIVTMIKEQTSNKVQNGIVENVAKQMNGIEIIKIGQAKGVRRTT”: the “soluble fraction (log2)” value was found to be 0.0482.
For the sequence “HMVSDTGAIEAIVAQVLADNPKLVEGYLATPEDKRGKAIGPFIGLTRKAAAGVNPQVVMDVLKKKLSEL”, the “soluble fraction (log2)” value is -0.27.
Under “HMVSEASELTDTINKIGSLAQALVGANKLSKTDLVGIIKKYHTSANYNSITDIGVAKNILAELEAKN” stands 0.13; under “HMVSFSIDEALVSAVKGPRSANVMSIQRQFLVRLSVERDGRVTITGANSKSVQQAREAVEAAVEEAKLHP”, -2.96; under “HMVSGVMAQQAIAVLVQQEDKHAPLSDQALAERLQVQGIDISRRTVAKYRQLLQIPSAATRR”, -0.669.
Under “HMVSIGSQVAKRRRELRLTQQNLAEKMGVSFQAISSWEREEFLPDINKLQKLAAILNTKISYLLEE” stands -1.33; under “HMVSINETAFIQIKNSSATEIKEKITALKLDELKNVTITADIRTNKLIVVGPKATINKIQELVIELDTES”, -0.174; under “HMVSKTEAMAVFIADKLQEGMVPANEILELYKGMQLSDRTIRNAKKQLGIVSIRKDGQWYWSL”, -1.05.
Then “HMVSLPSPLAGKVVSLTVQAGQEVKEGDEIMVLEAMKMNTQVHAPSSGRILALRVQPGDQVEEGQTLVTMG”, with 0.14; and “HMVSLSNQVFEKIEYDILSGKYKIGEIISEKRLSSELGVSRTPIREALGRLSEEGLVGDSPSGTVVLGI”, with -0.368.
With “HMVSRVTTPGVVGKTWQETKQILKQADLTVGSLTRDGKDVTPADGDLVTAQNPSAGQAIVRGSSVDLTFDK”, the “soluble fraction (log2)” value came to 0.0104.
“HMVSSYTMAIQINGKLRATHDFSVDTSQEDIKKIIINLPAIQKYINGVEIKKFIIVPQKIVNIV”: the “soluble fraction (log2)” value is -2.73.
Under “HMVSTEDEISDKLLLDFALEKLSENEKQIVKLRYYNSLTQSKTAEILNMTQVQVSRSEKKILAKLRGII” stands -0.0838; under “HMVSTGIMVVDGRGSVLQHNEAALRQLGVEVLTFESQVKEKLASEDFSVRETTAMLNGKKVRIIAFSDIR”, -2.44; under “HMVSVEELLSSLDPNEATVLKLLAERSSGVDELMERSGLDFSALSEAITNLELFGYIAREMDGVYSFS”, -1.05.
Then “HMVSVPDIGEKLPDFTGTPKRLLTPLLNKNDVNIIIKGDGWVVSQKPPAGTPVTKGMTIEFTL”, with -0.525; and “HMVTDSGEIEKLVDEVIDNNPDQVQQFREGKQQVLSYLVGQAMKLSRGKANPNQVNQFLRDKL”, with 0.433.
Under “HMVTDTGEIEAIIDRVISENPDSVSDFKNGKERALKFLMGQAMKESKGKANPQIVNELLLKKL” stands -0.00511.
